Data as given in US20200399314A1 (MEDIKINE, published 2020).
Bridge positions count the residues as written; N and C are the ends. Ends that are not written are not given here.

Biological target: T1, human IL-2Rα subunit (human, UniProt P01589 22-213, limits assumed)
T1 construct: also called CD25
T1 sequence (looked up): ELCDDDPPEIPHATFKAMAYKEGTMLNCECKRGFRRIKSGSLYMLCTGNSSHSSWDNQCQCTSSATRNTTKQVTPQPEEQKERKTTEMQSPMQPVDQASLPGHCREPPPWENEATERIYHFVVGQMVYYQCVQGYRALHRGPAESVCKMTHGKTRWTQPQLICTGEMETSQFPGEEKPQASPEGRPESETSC

NWECIFSPGRRGCSLT [SEQ ID NO 109]
IC50: < 100 µM

VRLCRVGPGYESCPAN [SEQ ID NO 103]
IC50: < 100 µM

FFLCDDFPGLPRCEWI [SEQ ID NO 128]
IC50: < 100 µM

VYECLFMPGRKGCFGM [SEQ ID NO 115]
IC50: < 100 µM

GQRCTYDPGQDACVFS [SEQ ID NO 130]
IC50: < 100 µM

RLFCLMNPGPPDCWIY [SEQ ID NO 134]
IC50: < 100 µM

DWECLFLPGRRGCTLF (disulfide 4-13 (inferred)) [SEQ ID NO 118]
IC50: < 100 µM

DWECIFLPGRRGCTLF (disulfide 4-13 (inferred)) [SEQ ID NO 114]
IC50: < 100 µM

DWECLFLPGRRGCLLF [SEQ ID NO 110]
IC50: < 100 µM

DWHCLFLPGHRGCTLF (disulfide 4-13 (inferred)) [SEQ ID NO 117]
IC50: < 100 µM

VRFCRSGPGWVSCGTQ [SEQ ID NO 102]
IC50: < 100 µM

FIPWDEYFKQVL [SEQ ID NO 9]
IC50: < 100 µM

EWECLFLPGRKGCTLF [SEQ ID NO 113]
IC50: < 100 µM

ETPCDLHPGHWSCSMV [SEQ ID NO 127]
IC50: < 100 µM

TWDCLFLPGRRGCTLM [SEQ ID NO 120]
IC50: < 100 µM

AWECLFLPGHRGCSLF [SEQ ID NO 112]
IC50: < 100 µM

VRMCYVAPGYVSCPRM [SEQ ID NO 104]
IC50: < 100 µM

NWECIFSPGRRGCSLT [SEQ ID NO 121]
IC50: < 100 µM

KLWCQNNPGNSICDMY [SEQ ID NO 132]
IC50: < 100 µM

AGWCKLNPGTQVCSFY (disulfide 4-13 (inferred)) [SEQ ID NO 126]
IC50: < 100 µM

SWECVYMPGHQGCRLF [SEQ ID NO 101]
IC50: < 100 µM

FVPWDVYFSQIL [SEQ ID NO 10]
IC50: < 100 µM

KSWCFDHPGYPICQFY [SEQ ID NO 133]
IC50: < 100 µM

SLNCKTRPGLRWCTWT [SEQ ID NO 100]
IC50: < 100 µM

EWECWFLPGRRGCTLI [SEQ ID NO 116]
IC50: < 100 µM

YWECVFMPGHRGCSLI [SEQ ID NO 119]
IC50: < 100 µM

GSRCYWDPGREVCIFK [SEQ ID NO 131]
IC50: < 100 µM

GLRCYFDPGSQICTFL [SEQ ID NO 129]
IC50: < 100 µM

EWECLFMPGRRGCLLM (disulfide 4-13 (inferred)) [SEQ ID NO 111]
IC50: < 100 µM
